This is an account of results in the DeepSol protein solubility set.

This data set can be described thus: soluble on expression in E. coli; label from the status in PepcDB or PDB records.
For the sequence “MGSDKIHHHHHHMRQLSINRLKEGDILGRTIYANDGRVLLGKGMALTKSYIDRLKTLGINILYIDDEVSKDIIVEDIISEEHRREAMASLDNAVQAVKVGKDFDGFNVKRNIDNIIQDILFQKDIFIGLTDMRTYDNQIFAHSVNVCVLSIVLGKALGLDRENLEGLAIGALFHDIGTVKLPKKLLSKREPFTPKEAALYQTHTNHGFDILRTKRELNLLSAHIAFQHHERLNGNGYPRKLEGDAIHQWAQIVGIANFYDNLVNDGPGHTRIPPYEACEILMGSAEKFFPKDLVITFLKHIAAYPTGCTVKLSTGETGIVVEQNKSLPMRPIIRVLVADQTLSRVQAKEYNLVEERTLFIESILE”, the “soluble on expression in E. coli” value is “not soluble”.

Consider “MPCRLTRLFGIEFPIIQAPMAGVQGSALAIAVSEAGGLGSLPCAMLSLEALEAELTAIRSQTAKPINVNFFCHREPVAQAAKQAAWLEQLAPYFAEFNLDPNAQPAGAQRTPYSKAQAEVLAKFKPEVVSFHFGLPDEELLLEIKSWGSKVISTATTVEEALWLEARGADAIIAQGLEAGGHRGHFLSEDLTEQLGTFSLLPQIIAAVEIPVIAAGGIVDATTVRAAMTMGASAVQVGTAYLLCPECNTSAIHREALQSDAAQHTALTNLFSGRPARGIVNRFMAEMGPMNEAVPDFPLASSAVAGLRTAAERLGFWDFSPLWCGQNASGCRAIPAADLTRSFVLSLPSSCVEPQEKSG”, for which the “soluble on expression in E. coli” value is “soluble”.

On to “MGSDKIHHHHHHMPAKTLYCATLASLNGLSDNRNATGISFIFQGGAVEEMQKVLVNEKGMAWITCEKCSHTSGIDVSRLSDRAPFIRYKCVKCDAEFDVACEFRKSYRKEVHLNGVFIQQQPREDYAGRIEILDISKTGVRFKTRVKFDFKPGYLLKLSFSLDDAKKTNINQTVEVKWVNGQLVGGEFRNQDHWTSQQLGFYFMS”, for which the “soluble on expression in E. coli” value is on record as “not soluble”.

For the sequence “MGSDKIHHHHHHMTNLNEKQLITEIVGLARSQGLTVHSENAQLNETGMDFQVVFAKDDTGMPWVLRKPRRSDVVERASAEGITLAFLRANLTADVPDWRIHTPELIAYPMLKGTPAAGIDLEQKQYVWNMDHQPPSDDFVRTLADILAELHGTDQISAGQSGIEVIRPEDFRQMTADSMVDVKNKLGVSTTLWERWQKWVDDDAYWPGFSSLIHGDLHPPHILIDQNGRVTGLLDWTEAKVADPAKDFVLYQTIFGEKETARLLEYYDQAGGRIWAKMQEHISEMQAAYPVEIAKLALQTQQEEHINMALEALGVTSD”, the “soluble on expression in E. coli” value was “not soluble”.

Consider “MSFVVIIPARYASTRLPGKPLVDINGKPMIVHVLERARESGAERIIVATDHEDVARAVEAAGGEVCMTRADHQSGTERLAEVVEKCAFSDDTVIVNVQGDEPMIPATIIRQVADNLAQRQVGMATLAVPIHNAEEAFNPNAVKVVLDAEGYALYFSRATIPWDRDRFAEGLETVGDNFLRHLGIYGYRAGFIRRYVNWQPSPLEHIEMLEQLRVLWYGEKIHVAVAQEVPGTGVDTPEDLERVRAEMRGSHHHHHH”, for which the “soluble on expression in E. coli” value was “soluble”.

For “MRLFIVQAMFTEYRPTHGYDEYFCREQSAPRADLEPLLSSLGAMGLAELNRSHASASNLLRRLGATFRLNGSGLHGGERILPFDPLPRLIHRQEWSVLERGLVQRLEAIDQFLADVYGPQRILNDGVIPREDVESSQGWRPQMQDIAVPLNRWCHISGLDLIRDGDGTWRVLEDNLRCPSGVAYFLENRRVMKRLFPSLFQGRTVQPIDDYPSHLLRTLQDLAPWSDAPRVVLLTPGVFNSAYFEHSYLAQQMGIALVEGRDLICEDGRVWMRSTAGREPVDVIYRRIDDDFLDPNVFRRDSMLGVPGLIDAMRSGRVAIANAPGSGVADDKLIYAYVPAMIRYYLNEEPIIDNVPTYLCSRDDDRRYVLEHLNELVVKSVAEAGGYGMLIGPHASSEEIESFAVKIKAHPRNFIAQPTLQLSTVPSLSEGELYPCHVDLRPYVLRGKSDWVSPGGLTRVALKRGSLVVNSSQGGGCKDTWVVSDSAVTAGNQELVPC”, the “soluble on expression in E. coli” value is “not soluble”.

For “DRILAQERLCRSEERYRLLFEEMMSGCALHELICDRDGNPADYRFLAVNGAFERMTGLRAADIVGKTVLEVMPGTERHWIERYGDVALSGRSAEFEEYAGAIGRYYSVRAYCPERGKFAAVFNDIT”, the “soluble on expression in E. coli” value is reported as “not soluble”.

For “MSLLWKKAQEETHDYIIRKADPSDAAGIISCMQSVMDERIYLVGEYYLLSERAEQERIKSLDDLTLVCVIDRKVVGVLTVQRGIYRKNRHTGMLGIAIMAGHRHKGLGTRMIKEAILWCEDQGIKKLNLEVFSTNVNAIKTYEKVGFEVEGKRRKQFLIDGQYVDDVLMTYYVDKSLKEEGHHHHHH”, the “soluble on expression in E. coli” value is given as “soluble”.

For the sequence “MGSDKIHHHHHHMELRDLQIFKCVAHHKSITGAAKELNYVQSNVTARIKQLENELKTPLFNRHKKGVSLSPEGRKMIEYVNKILKDVEELEQVFLDTEIPSGILKIGTVETVRILPTIIASYYKKYPNVDLSLQAGLTEELIKKVMNHELDGAFISGPLKHSILEQYDVYTEKLTLVTSNKTFNIEDFSTTPILVFNQGCGYRSRLEQWLKDEGVLPNRMMEFNILETILNSVALGLGITVVPESAVMHLAVQGKVYCHPLPEKDSCISTIFIRHKDAYLTNSMRSLLKTIVEHKNMSMA”, the “soluble on expression in E. coli” value is given as “not soluble”.

Take “MATTEQLANTTQKEPVIDLDQDSNMEIAHKIQNQTKRLPISEPANKNKNVTSKQNKETNRKTFEKSKRMATSTIQDRVLRTQKTRKDKESTTEKVNAILKKSAKQIKVREEEEGDDDLEDELTLYPSKRKMMVGSKNRKRTIKPNRDTIAEEQETDGEHGVKQRAFDPKQRHRQCPECLLLFSTPDKLKRHMKSHGDVPDVYCSLCNTPIKFKYNLRVHLEKCYDKMKLSLHDSMLSKVYPDFVRKLQEAAKNPVLPMPTLEGMPYEFTLKGVVGFDTSLDITKDLMLAKYEQKKQRELAGIDSDDSDELDYFDDFPDE”: the “soluble on expression in E. coli” value is listed as “not soluble”.

Take “MSLAQLGRFWHISDLHLDPNYTVSKDPLQVCPSAGSQPVLNAGPWGDYLCDSPWALINSSLYAMKEIEPKPDFILWTGDDTPHVPNESLGEAAVLAIVERLTNLIKEVFPDTKVYAALGNHDFHPKNQFPAQSNRIYNQVAELWRPWLSNESYALFKRGAFYSEKLPGPSRAGRVVVLNTNLYYSNNEQTAGMADPGEQFRWLGDVLSNASRDGEMVYVIGHVPPGFFEKTQNKAWFRESFNEEYLKVIQKHHRVIAGQFFGHHHTDSFRMFYDNTGAPINVMFLTPGVTPWKTTLPGVVDGANNPGIRIFEYDRATLNLKDLVTYFLNLRQANVQETPRWEQEYRLTEAYQVPDASVSSMHTALTRIASEPHILQRYYVYNSVSYNHLTCEDSCRIEHVCAIQHVAFNTYATCLHGLGAKLVPGEGHHHHHH”: the “soluble on expression in E. coli” value was “not soluble”.

As for “MMFGRFTERAQKVLALSQEEAIRIGHNNIGTEHILLGLVREGEGIAAKALIALGLSPEKVQKEVEALIGRGTEASQTVHYTPRAKKVIELSMDEARKLGHSYVGTEHILLGLIREGEGVAARVLNNLGVSLNKARQQVLQLLGSNEASSGHQGGSSTNANTPTLDSLARDLTVVARENRLDPVIGRGKEIQRVIEVLSRRTKNNPVLIGEPGVGKTAIAEGLAQQIVNNEVPETLRDKRVMTLDMGTVVAGTKYRGEFEDRLKKVMDEIRQAGNIILFIDELHTLIGAGGAEGAIDASNILKPSLARGELQCIGATTLDEYRKYIEKDAALERRFQPIHVDEPSLDESTQILKGLRDRYEAHHRVSITDDAIDAAVKLSDRYITDRFLPDKAIDLIDEAASKVRLRSYTTPPNLKELEVKLEEIRKEKDAAVQSQEFEKAASLRDMEQRLREKLEDTKRQWKEQQGKENSEVTVEDIANVVSTWTRIPVSKLAQTETDKLLNLESILHDRVIGQDEAVVAVAKAVRRARAGLKDPKRPIGSFIFLGPTGVGKTELARALAESMFGDEDAMIRIDMSEYMEKHSTSRLVGSPPGYVGYEEGGQLTEKVRRKPYSVVLLDEVEKAHPDVFNILLQVLEDGRLTDSKGRTVDFRNTIVIMTSNVGAEALKRNKHLGFNVQDESRDYSDMKGKVMDELKKAFRPEFLNRIDEIIVFHMLEKKHIQEIVTLMVNQLVNRLKEQEIELHLTEGAISAIADKGFDREYGARPLRRAIQKHVEDRLSEELLKGAIEKGQKVIFDVEGESFVIHSAEKVK”, the “soluble on expression in E. coli” value is recorded as “soluble”.

Turning to “MSDSGRADALLAQLPREGRGRLKVFLGAAPGVGKTYAMLQAAHAQLRQGVRVMAGVVETHGRAETEALLNGLPQQPLLRTEYRGMTLEEMDLDALLKAAPSLVLVDELAHTNAPGSRHTKRWQDIQELLAAGIDVYTTVNVQHLESLNDQVRGITGVQVRETLPDWVLQEAFDLVLIDLPPRELLERLRDGKVYVPEQARAAIDAFFTQTNLTALREMAMQTAAAQV”, the “soluble on expression in E. coli” value is given as “not soluble”.

In the case of “MATTIPGSLVNKTKKFFMGMPAPTGYVPGVGRGATGFTTRSDIGPARDPTELPEAGPVGPSPQGASSSSAPPAKRARDDDGDGEDLNEANYDEFSGYSGSLFSKDPYDQEDEDADRIYNEVDDRLDERHKERREKKYKELVELFHKDRPKIQQGFQDLKRQLAEVTEDEWQAIPEVGDMRNKAKRNARAEKFTPVPDSIIAMNMNYGQMSHSIDSGNGLTTPFASGFMSTLGGGGGAAAAGAKSGIMTPGWKSDIPSSGTSTDLDLVKIGQARNKIMDMQLTQVSDSVTGQTVVDPKGYLTDMQSIIPQMGGDLQDIKKARMLLKSVRETNPRHPPAWVASAVLEEQAGKLQTARNFIMEGCEKIKNSEELWLHAIRLHPPELGRSIVANAVRSCPHSVRLWCKASDLEQDLKDKKKVLRKALEQIPSSVKLWKAAVELEDPEDARILLTRAVECCSSSTEMWLALARLETYENARKVLNKAREHIPTDRHIWLSAARLEETRGQKDMVDKIVAKAMSSLKVNQVEINRDQWLKDAVDAEMAKCPITCQAIIRNVIGLGVEDEDKRTTWLADAENFEKEEAFTCVRTVYAIALKEFSRKRSIWDAAIHFEREHGSLDEHEAILLKACETVPEVEDYWLMLAKLRFVNKRVGEARDTLMSAFEKHGHQSEKIWLAATKIEIETDQFDTARGLFGKARAKAPSARVWMKNAHFEWCLGNVEEAKRLCEECIQKYDDFHKIYLVLGQVLEQMNDVHGARLAYTQGIRKCPGVIPLWILLVRLEEKAGQIVKARVDLEKARLRNPKNDDLWLESVRFEQRVGCPEMAKERMSRALQECEGSGKLWAEAIWMEGPHGRRAKSIDALKKCEHNPHVLIAAARLFWSERKIKKAREWFVRAVNLDPDNGDAFANFLAFEQIHGKEEDRKSVFKKCVTSEPRYGDLWQSVSKDPINWRRTTEEILQLATQKIKVPT”, the “soluble on expression in E. coli” value is “not soluble”.

As for “MGSDKIHHHHHHMSADTLFPKLDIPATIAAGPGPGNTDARVLAAFSGAGLADHMHGDVLRGMVECKLMLRRIWGTDNIHTFGVAGTGWSGLDVMFSAVMPGDKVVVFTNGTFSGIDGLTVRMKAATAEELAANPLDPRPASVVIVDIPHGQSVTGEIVETALAEHKPKWAAMAHWETGSGRINDIAGFSAACERHDVMGLVDAVSSLGVEDFRIDDFPGVHGWASCPQKGICCLPLTYAPVSFTDRYIQTLRATGTRSFVHHPILEARHWGVIEGKDVDKGTYHRTHSAYAVAAFHEALRITLQQGVANRAKDYAYHEAALRRAVEALGCEVTSNMTSLVVLNLPGDLRGREMELVQNCRARNFGIWPTLSAPVQVRIGILNLLSRAAVTDIVTRFAEAIRELGGAGDEATALAALDAHYDNAIAAE”, the “soluble on expression in E. coli” value is “not soluble”.

As for “VTAEIRLYITEGEVEDYRVFLERLEQSGLEWRPATPEDADAVIVLAGLWGTRRDEILGAVDLARKSSKPIITVRPYGLENVPPELEAVSSEVVGWNPHCIRDALEDALDVI”, the “soluble on expression in E. coli” value is “soluble”.

Consider “GINAGKMAMIVTDKGEQVTKAINACCNRGSTILKGMGGYKMDKKEVVICACNNKEMFFVQQVVKEVDPAAFTVVLESNEVHGEGFKMFQIGEGNVTVQTGLRSCCADRAKMQRQ”, for which the “soluble on expression in E. coli” value was “not soluble”.
